# Data: the DeepSol protein solubility set
# Assay: soluble on expression in E. coli; label from the status in PepcDB or PDB records
row,Sequence,soluble on expression in E. coli
1,MGSDKIHHHHHHMTTTSTPGLFERPITLPDADAQSRLAKLVGMDDKIRRLSNVLAVLINPAGLKEWLDQHHAHSTGLLDAVLRRPPLVVLSGDVGSGKTELAETIGDMVARQEGIDITLLPLSLSSRGQGRVGEMTQLVSAAFDHAFHEASKVKSSRGSRSRGGVILLVDEADALAQSREADQMHHEDRAGVNAFIRGIDRLANGHLPAAVLMCTNRLNALDPAVRRRAADILVFERPDEAQRLEVLHRRLGDAGFGKADLQSLVAATGEQAKRPYGFTYSDLTQRLLPAIVLDAYPQGPIKPSRAIELARAMAPTPPFKDSTARGC,not soluble
2,MGSDKIHHHHHHMSEMMIVAVTGGKGGTGKSTLSANLFFYFIENYKTALIDCDVETPNLPYLTGCEDLFLAREVFIEVPNIEEGKTYNYNNVCKEGALLKVGDKLIFIEDLCSGCKACGINSNITFKKKSIGKIYEKKFDNGYLIVGKSNLGERKTAKIVTETKKYGLSKNCEINIVDTAAGTHCNVVRALINADKVLIVTEPTPFGVSDAKRIIKVVEKLNIPYKIVLNRYGISDLKIGYNFKIPYDKRIVECYCKGESFLKYNDLRNYIEEIANWIIWG,not soluble
3,TSALIERIDAIIVDLPTIRPHKLAMHTMQQQTLVVLRVRCSDGVEGIGEATTIGGLAYGYESPEGIKANIDAHLAPALIGLAADNINAAMLKLDALAKGNTFAKSGIESALLDAQGKRLGLPVSELLGGRVRDSLEVAWTLASGDTARDIAEARHMLEIRRHRVFKLKIGANPVEQNLKHVVTIKRELGDSASVRVDVNQYWDESQAIRACQVLGDNGIDLIEQPISRINRGGQVRLNQRTPAPIMADESIESVEDAFSLAADGAASIFALKIAKNGGPRAVLRTAQIAEAAGIGLYGGTMLEGSIGTLASAHAFLTLRQLTWGTELFGPLLLTEEIVNEPPQYRDFQLHIPRTPGLGLTLDEARLARFARR,soluble
4,MSLNAPRIIGVIVPDIVTHFFASILNGIENMAIDNGYFVIITTSHESFEHEKRNIENLVNMRVEGIIACLSQETTDFSHFAALKEINMPLILFDRVCLTDQFSSVIADGAQSAQMATQHLLDNGSKRVAFIGGANHLDIVKRRKHGYLEALRDNRIPIEKELVVCRKIDYEEGQIATETLLSLPQPPDAILAMNDTLAFAAMEVIKRHGLRIPDDIAIIGYTDEQHANYVEPKLSAVSHQTYKMGETACQLLIDQIKGDRTVKQVVIPTHLQIRESSIEGHHHHHH,soluble
5,MKRGKRLILPLLGTLILTSLFSCGVDRWPEYYPETGRDIWIDSVMRQEYLWYRDMPSPAAPDYFQKPEAFLKKAVASMDNGFSKIDSLLDEPIPSYGFDYTLYKVLDNDTAYNALISYVVPGSPAEEAGLQRGHWIMMMNGDYITKKVESELLQGSTRQLQIGVYKEVVGEDGEVTGGVVPIGETTMPASRSLVDKPVHRFEIIPWNGKKVGYLMYNEFKAGPTTDSQAYNDDLRRAFRDFQTGGVNEFVLDLRYNTGGSLDCAQLLCTMLAPADKMNQLLALLRYSDKRVEANQDLTFNPELIQSGANLNLSTVYVLTTNATRGAAEMVINCLNPYMKVVLIGTKTAGEYVATKPFVHPTDRFILNLVVCNVYNAEEKSDYATGFKPTYEYNEDSYLSTYLPFGNTNETLLNAALKIMSGITDK,not soluble
6,MRLPTEAHLRQHVRVIDSMSCNREKVRDLRRQIPSFDCVPGCHDCCGPVTTSSEEMSRLPRKTVAEQEAAFNELNCVHLGPQGCTVYDERPLICRLFGTTASLPCPNGRRPVELIHPRAEKQIHEYMASTRQVLVLEHHHHHH,not soluble
7,SLEKKDTNSLKLLLIGNTGIGEYKSRAERKGLWYKLKRFLWTNEFDQTVSALAKWHAEEKADAVLGLGDFLGIPGPLSARDERFTKRWYDIFVKDAKLDIPWLMTLGEEEALVNPSASVRHHYTGEHPNWYMPNDAYTATFSFSTSMTMANGTIQHEAFNATVINVNTWNLFVGNPIANNMQSMMDRLMWLSDQLYTAVNQTTNWLIIMGHLPLVSTGPQGEQGRLQYVDDLYKNGQPRGPEAVLIQMLLSHYQVDLYVSAHDHFMEYVALEDLSKNTTTAFITSGAAVRLLDKDVGRGWIGRLRGALYPILCWSGRRILYAFHPG,soluble
8,MSLQGQIDIPLDIVGRWQADQSAYELAKTYYWAKVAHLAEHNDQLAQPTYEGAHLADISEINNAPATARRMLVVSSDLFRAQQTAHAFADLMGLDVELDPRLRERSFGEWEGMTREEICEHYADDYHSWRAHTGGETKHGVESRIHTGRRGAEAVRDIVAKHHDETMPTTLLLVGHGSWIVATVAVLLDMDPDDLNNVGAMRNAFWTRMTPHTDPRNADRPTWKLEEFNQGPAIASFADWENGPESLRAPGMPLWKPIIQEGHHHHHH,not soluble
9,MIPSQISFNTLPVNATYASETTVDTQKFSDILYSAGCSLKDMAYLSRCLASIHPTLAKNIYETENLSDQKLLHIDCRSTNEIKINIFFGQQREGLIEINSDTVIFSILSSLIDSAISKFQHQIPVNGSVNRELLYEDYTD,not soluble
10,MGSDKIHHHHHHAQNQDCAFFFPNQEGEQITRNCYTADGKLTNILVYRVDQAYEYPSGMEVVANYTFADAAGKTLNSGQMVARCSDGNFSMSMGDVATFPTALNMMNADVYMMGDLMNYPDAFSNPMNPGDDDEFDDGTLRLYQKGNKNNRAEISVFDREFVTTETVNTPAGAFYCTKVKYEMNIWTPKETIKGYGYEWYAPNIGIVRSEQYNNKKELQSYSVLERIKK,not soluble
11,MDLEISEKIKAYRQVMSAKSPSDAALTWNLFDLPNNMELARFFSTLSKEEMAKFEQCVFVDGQDPKTYIKMHKMVESTATIALSEEIENKRTILVAEPNRGGVSGHEGEMASTSSGFRDGYHPCMDHTSYAEGLFTESEKAWELERLLKLQKEIAEAKSKIVKQKKPSIKSA,not soluble
12,MKTITLRPGQMTLADLRHIYQHPVHITLDESAYVPIQQSVDCVQAILAEQRTAYGINTGFGLLASTRIATEDLENLQRSIVLSHAAGVGEANDDAIVRLIMVLKINSLARGFSGIRLEVIQALITLVNAGVYPHIPLKGSVGASGDLAPLAHMSLLLLGEGKARYQGEWLPAHTALAQAGLQPLTLAAKEGLALLNGTQVSAAYALRGLFEAEDLYAAASVFGCLTVDAALGSRSPFDARIHAVRGQRGQIDAASTYRHLLGERSEISESHKNCDKVQDPYSLRCQPQVMGACLGQIRQAAEVLAIESNAVSDNPLVFAEQGDVLSGGNFHAEPVAMAADNLALALAEVGSLSECRISLMMDKHMSQLPPFLVENGGVNSGFMIAQVTAAALTSENKGLAFPASVDSIPTSANQEDHVSMAPRAGKRLWEMAENVRNILAIEWLAACQGLDLRKGLRTSAILEPARQLLRQHVTYYDKDRFFAPDIEVASQLIAQRHMNELMPAKLLPSL,not soluble
13,AMNAYYIQDRLEAQSWARHYQQLAREEKEAELADDMEKGIPQHLFESLCIDHLQRHGASKKSITRAFDDDVEFQERMAEHIRYMVETIAHHQVDIDSEV,soluble
14,MPQQNYLDELTPAFTSLLAIKEASRCLLCHDAPCSQACPAQTDPGKFIRSIYFRNFKGAAETIRENNALGAVCARVCPTEKLCQSGCTRAGVDAPIDIGRLQRFVTDFEQQTGMEIYQPGTKTLGKVAIIGAGPAGLQASVTLTNQGYDVTIYEKEAHPGGWLRNGIPQFRLPQSVLDAEIARIEKMGVTIKCNNEVGNTLTLEQLKAENRAVLVTVGLSSGSGLPLFEHSDVEIAVDFLQRARQAQGDISIPQSALIIGGGDVAMDVASTLKVLGCQAVTCVAREELDEFPASEKEFTSARELGVSIIDGFTPVAVEGNKVTFKHVRLSGELTMAADKIILAVGQHARLDAFAELEPQRNTIKTQNYQTRDPQVFAAGDIVEGDKTVVYAVKTGKEAAEAIHHYLEGACSC,not soluble
15,MGSDKIHHHHHHMLHYNALTRGCGRITLLMLGLALCQPVFAHPHSFIDMQTTVESQNDNITGLRMQWTMDPITSADLLYDAGKAKKDSEVWKKLAAEVMANVLGQHYFTDIYRDSQPVKYAPMPTEYHLSRKGNQAILEFVLPLAHPQPLAGKPLLISTYDPTYFVDMSYQNDKAVKLAPALASRCKTSLVTPKPNTELQSYALSLDKNDAPDEDMDLGKQFAQRVTLQCQ,not soluble
